Legend:
[1] = Evaluation of adsorptivity to culture plate (OPA fluorescence); format: physicochemical; details: FIG. 1; for adsorptivity to a plate: 0 to 200 pmol/cm^2, 37° C. 2 hours, washed with PBS twice
Method: Each polypeptide obtained by the above-described method was diluted with a predetermined buffer so as to be added to wells at a predetermined final concentration of from 0 to 200 pmol/cm^2, and the resultant was aliquoted in 64 μL to a 96-well plate made of polystyrene and treated with plasma (Tissue Culture-Treated, Falcon). Each polypeptide was adsorbed to the plate by incubation at 37° C. for 2 hours, and was thereafter washed with PBS twice, to obtain a surface coated with each of the polypeptides of from RCP-1 to RCP-16.
To surfaces coated with RCP-1, and from RCP-11 to RCP-16 among the polypeptide-coated surfaces obtained as described above, 64 μL of each of boric acid buffer and 1 N NaOH was applied, and incubated at 80° C. and a humidity of 100% for 24 hours. After air-cooling, 75 μL of boric acid buffer was added to each well, and 50 μL of reaction liquid in which an OPA (o-phthalaldehyde: Wako Pure Chemical Industries, Ltd.)/methanol solution (160 mg/ml) and an NAC (N-acetyl-L-cysteine: Wako Pure Chemical industries, Ltd.)/boric acid buffer solution (2 mg/ml) were mixed at 1:100 (mass ratio) was further added. After incubation at 40° C. for 30 minutes, the fluorescence intensity thereof was measured (excitation of 355 nm/fluorescence of 486 nm) using an ENVISION MULTI-LABEL COUNTER (PerkinElmer Inc.). A calibration curve was separately made from each polypeptide solution, to calculate an amount of adsorption. In FIG. 1, a black rhombus, a black tetragon, a black triangle, a black circle, a white rhombus, a white tetragon, and a white triangle represent RCP-1, RCP-11, RCP-12, RCP-13, RCP-14, RCP-15, and RCP-16, respectively.

[2] = test system: human iPS cells; experiment: Cell Adhesiveness Evaluation 2 (synthetic peptide inhibition of cell adhesion to natural vitronectin); format: cell-based; details: 100 μM synthetic peptide
Method: Polypeptides listed in Table 7 were synthesized by Emoc solid phase synthesis. A surface to which natural vitronectin was adsorbed at a concentration of 130 pmol/m^2, and thereafter, a cell suspension to which 100 μM of the above-described synthetic peptide was added was seeded at a rate of 30,000 cells/well. The number of adherent cells after 24 h post seeding was calculated by the same technique as in <Cell Adhesiveness Evaluation 1>.

[3] = Presence or absence of aggregation after dialysis; format: physicochemical; details: after stepwise dialysis removing urea
Method: For from RCP-1 to RCP-10, and RCP-17, each polypeptide solution after the purification was dialyzed using a SLIDE-A-LIZER (3.5K MWCO). A dialysis external liquid was based on a dialysis buffer (PBS, 1.5 M NaCl, 0.5 M L-arginine, 1 mM EDTA, pH 7.4), and urea was removed by stepwise dialysis. The concentration of an end dialysis product was calculated at an absorbance of 280 nm using a NANODROP (Thremo Fisher Scientific Inc.).
In addition, the presence or absence of aggregation was evaluated by G, A, and B below.
G: Formation of an aggregate is not observed.
A: Formation of particles having a particle diameter of around 100 nm is observed.
B: Formation of visible aggregation with a particle diameter of 1 mm or more is observed.

[4] = test system: human iPS cells; experiment: Proliferation Evaluation of iPS cells on polypeptide-coated plate; format: cell-based; details: for The Number (%) of Cells after 3 Days: 5000 cells/well
Method: The iPS cells collected in the same manner as in <Cell Adhesiveness Evaluation 1>described above were seeded on a 96-well plate, to which RCP-1, RCP-11, and the natural human vitronectin were adsorbed, at a rate of 250 cells/well, and were cultured in a 5% CO2 incubator at 37° C. for 8 days. The number of adherent cells after each lapse of time was measured by the same method as in <Cell Adhesiveness Evaluation 1> described above, to obtain proliferation curves, The proliferation curves were indicated in FIG. 2. In FIG. 2, a black rhombus represents an example in which RCP-1 was used, while a black tetragon represents an example in which RCP-11 was used.
Similarly, each of samples from […] was prepared so as to have an addition concentration listed in Table 8 with each of from RCP-1 to RCP-10, and RCP-17, and Human Recombinant Laminin-511 as a reference, was seeded on a 96-well plate, to which each polypeptide was adsorbed, at a rate of 5000 cells/well in the same manner as in<Cell Adhesiveness Evaluation 1> described above, and was cultured in a CO2 incubator at 37° C. for 3 days. The number of cells after the 3 days was measured by the same method as in <Cell Adhesiveness Evaluation 1> described above.

[5] = test system: human iPS cells; experiment: Cell Adhesiveness Evaluation 3 (RCP-1 addition amount series); format: cell-based; details: adding not less than 125 pmol/cm^2
Method: Cell adhesiveness was evaluated in the same manner as in <Cell Adhesiveness Evaluation 1> except that RCP-1 was adjusted with PBS to have a concentration of from 125 pmol/cm^2 to 1000 pmol/cm^2 to be used. In Table 9, cell adhesion rates were relative values in a case in which a cell adhesion rate to a cultivation container to which natural vitronectin was adsorbed at a concentration of 130 pmol/cm^2 was regarded as 100. n=3.

[6] = test system: human iPS cells; experiment: Evaluation of Maintenance of Undifferentiation (colony form, NANOG staining); format: cell-based
Method: iPS cells collected in the same manner as in <Cell Adhesiveness Evaluation 1> described above were suspended in TESR2. Induced pluripotent stem cells (iPS cells) were seeded on a 6-well plate (Tissue Culture-Treated, Falcon) to which each of the sample 1, the sample 2, the sample 5, the sample 6, and the sample 7 used in <Cell Adhesiveness Evaluation 1> described above was adsorbed in the same manner as in <Cell Adhesiveness Evaluation 1>, and were cultured in a CO2 incubator at 37° C. The culture medium was replaced by a fresh culture medium every day except the next day after the seeding. Subculture was performed by the same method as mentioned above every six days.
The cells were cultured under these conditions for 1 month, thereafter immobilized with 4% paraformaldehyde, and made to have membrane permeability enhanced with 1% Triton-X/PBS. Blocking treatment was performed with an Image IT Signal Enhancer (Invitrogen), followed by adding an anti-human NANOG antibody (AF1997, R&D Systems, Inc), ALEXA FLUOR 555-CONJUGATE rabbit anti-goat IgG antibody (Invitrogen), and DAPI (Dojindo Laboratories), by performing labeling, and by photographing the cells with a fluorescence microscope.
In each of FIG. 3 and FIG. 4, “A”, “B”, “C” “D”, and “E” show iPS cells cultured on RCP-1, iPS cells cultured on RCP-11, iPS cells cultured on the natural human vitronectin, iPS cells cultured on rinaminin-5, and iPS cells cultured on rLaminin-511, respectively. Scale bar: 100 μm. In FIG. 3, overall colony images are shown in the left column, while magnified images are shown in the right column; and in FIG. 4, DAPI-stained images are shown in the left column while anti-NANOG antibody-stained images are shown in the right column. Scale bars in FIGS. 3 and 4: 200 μm.

RCP-14: comparative recombinant polypeptide, GPLG + human vitronectin positions 1-55 (GPLGDQESCKGRCTEGFNVDKKCQCDELCSYYQSCCTDYTAECKPQVTRGDVFTMPEDE; Synthetic Peptide RCP-14) [reference compound]
adsorption amount relative to that of the polypeptide containing SEQ ID NO:2 [1]: ¼
adsorptivity to a plate [1]: inadequate as an adsorbent to a culture plate

TAECKPQVTRGDVFTMPEDE [Peptide-6]
inhibition of cell adhesion to natural vitronectin (in words) [2]: significantly inhibited

TAECKPQVTRGEVGTMPEDE (TAECKPQVTRGEVFTMPEDE) [Peptide-8]
inhibition of cell adhesion to natural vitronectin (in words) [2]: adhesion inhibition did not occur

B1: RCP-10: recombinant polypeptide, Met + human vitronectin positions 1-55, 269-373, 374-399, C274S (protein)
chain: MDQESCKGRCTEGFNVDKKCQCDELCSYYQSCCTDYTAECKPQVTRGDVFTMPEDESQEESEGSSLSAVFEHFAMMQRDSWEDIFELLFWGRTSAGTRQPQFISRDWHGVPGQVDAAMAGRIYISGMAPRPSLAKKQRFRHRNRKGYRSQRGHSRGRNQNSRRPSRATWLSLFSSEESNLGANNYD
modifications: Synthetic Peptide RCP-10
notes: recombinant polypeptide, Met + human vitronectin positions 1-55, 269-373, 374-399, C274S
Aggregation [3]: B (Formation of visible aggregation with a particle diameter of 1 mm or more is observed.)
The Number (%) of Cells after 3 Days ([4]; addition amount 20 μg/cm^2): 101.9%

B2: RCP-16: comparative recombinant polypeptide, GPLG + human vitronectin positions 269-459 (protein)
chain: GPLGPSQEECEGSSLSAVFEHFAMMQRDSWEDIFELLFWGRTSAGTRQPQFISRDWHGVPGQVDAAMAGRIYISGMAPRPSLAKKQRFRHRNRKGYRSQRGHSRGRNQNSRRPSRATWLSLFSSEESNLGANNYDDYRMDWLVPATCEPIQSVFFFSGDKYYRVNLRTRRVDTVDPPYPRSIAQYWLGCPAPGHL
modifications: Synthetic Peptide RCP-16
adsorptivity to a plate [1]: favorable adsorptivity to a plate, equivalent to that of RCP-11

B3: RCP-9: recombinant polypeptide, Met + human vitronectin positions 1-55, 269-373, 374-389, C274S (protein)
chain: MDQESCKGRCTEGFNVDKKCQCDELCSYYQSCCTDYTAECKPQVTRGDVFTMPEDESQEESEGSSLSAVFEHFAMMQRDSWEDIFELLFWGRTSAGTRQPQFISRDWHGVPGQVDAAMAGRIYISGMAPRPSLAKKQRFRHRNRKGYRSQRGHSRGRNQNSRRPSRATWLSLFSSE
modifications: Synthetic Peptide RCP-9
notes: recombinant polypeptide, Met + human vitronectin positions 1-55, 269-373, 374-389, C274S
Aggregation [3]: B (Formation of visible aggregation with a particle diameter of 1 mm or more is observed.)
The Number (%) of Cells after 3 Days ([4]; addition amount 20 μg/cm^2): 105.8%

B4: RCP-1: recombinant polypeptide, Met + human vitronectin (SEQ ID NO:3) positions 1-55, 269-459 (protein)
chain: MDQESCKGRCTEGFNVDKKCQCDELCSYYQSCCTDYTAECKPQVTRGDVFTMPEDEPSQEECEGSSLSAVFEHFAMMQRDSWEDIFELLFWGRTSAGTRQPQFISRDWHGVPGQVDAAMAGRIYISGMAPRPSLAKKQRFRHRNRKGYRSQRGHSRGRNQNSRRPSRATWLSLFSSEESNLGANNYDDYRMDWLVPATCEPIQSVFFFSGDKYYRVNLRTRRVDTVDPPYPRSIAQYWLGCPAPGHL
modifications: Synthetic Peptide RCP-1
adhesiveness of iPS cells (in words) [5]: cell adhesion rate equivalent to that of natural vitronectin
adsorptivity to a plate [1]: favorable adsorptivity to a plate, equivalent to that of RCP-11
form of iPS cell colonies ([6]; FIG. 3, TESR2, subculture every six days): homogeneous colony and a form characteristic for undifferentiated cells having a high nucleus occupying rate
NANOG expression (immunostaining) ([6]; FIG. 4, cultured for 1 month): strongly expressed NANOG in an overall colony
maintenance of undifferentiated state ([6]; cultured for 1 month): undifferentiated state was favorably maintained
cell proliferation property (in words) ([4]; FIG. 2 and Table 8): higher cell proliferation property than that of RCP-11
The Number (%) of Cells after 3 Days ([4]; addition amount 80 μg/cm^2): 100.0%

B5: RCP-15: comparative recombinant polypeptide, GPLG + human vitronectin positions 56-459 (protein)
chain: GPLGYTVYDDGEEKNNATVHEQVGGPSLTSDLQAQSKGNPEQTPVLKPEEEAPAPEVGASKPEGIDSRPETLHPGRPQPPAEEELCSGKPFDAFTDLKNGSLFAFRGQYCYELDEKAVRPGYPKLIRDVWGIEGPIDAAFTRINCQGKTYLFKGSQYWRFEDGVLDPDYPRNISDGFDGIPDNVDAALALPAHSYSGRERVYFFKGKQYWEYQFQHQPSQEECEGSSLSAVFEHFAMMQRDSWEDIFELLFWGRTSAGTRQPQFISRDWHGVPGQVDAAMAGRIYISGMAPRPSLAKKQRFRHRNRKGYRSQRGHSRGRNQNSRRPSRATWLSLFSSEESNLGANNYDDYRMDWLVPATCEPIQSVFFFSGDKYYRVNLRTRRVDTVDPPYPRSIAQYWLGCPAPGHL
modifications: Synthetic Peptide RCP-15
adsorptivity to a plate [1]: favorable adsorptivity to a plate, equivalent to that of RCP-11

B6: RCP-13: comparative recombinant polypeptide, GPLG + human vitronectin positions 1-55, 56-129 (protein)
chain: GPLGDQESCKGRCTEGFNVDKKCQCDELCSYYQSCCTDYTAECKPQVTRGDVFTMPEDEYTVYDDGEEKNNATVHEQVGGPSLTSDLQAQSKGNPEQTPVLKPEEEAPAPEVGASKPEGIDSRPETLHPGRPQP
modifications: Synthetic Peptide RCP-13
adsorption amount relative to that of the polypeptide containing SEQ ID NO:2 [1]: ¼
adsorptivity to a plate [1]: inadequate as an adsorbent to a culture plate
